How the values were obtained:
[1] = system: HBV (rAAV8-1.3HBV strain ayw, D type); assay: Combination therapy study in AAV-HBV mice (Example 1): serum HBsAg and HBV DNA; type: in vivo, C57BL/6 mice
Protocol: The mice (C57BL/6 strain) were inoculated with the following amount of rAAV8-1.3HBV strain ayw, D type: 1.0×10^11 viral genomes per mouse in 200 μl volume via tail veins injection. Four weeks after viral inoculation, treatment with test compounds was initiated.
Entecavir was administered orally once per day.

[2] = system: HBV genotype C; assay: Serum clearance of HBsAg and viral entry inhibition in PXB-Mouse model (Example 3); type: in vivo, uPA/SCID mice with transplanted primary human hepatocytes; details: HBC34 antibody (HBC34-v35-mu-IgG2a) 15 mg/kg, not in combination with the siRNA
Text: An immune-deficient mouse having transplanted human hepatocytes was used to test the effectiveness of a combination therapy with an HBV-specific siRNA and an anti-HBV antibody in clearing HBsAg.
Primary human hepatocytes were transplanted into SCID mice for which mouse hepatocytes had previously been destroyed enzamatically. The mice were T- and B-cell deficient. […] Mice were inoculated via tail vein injection with HBV genotype C at 1.0×10^7 viral genomes per mouse. Treatments began eight weeks post-infection.
HBV-infected mice (n=4 per treatment group) were administered one of seven different treatments: (1) PBS only; (2-4) an anti-HBV antibody (a fully murinized HBC34v35 antibody, HBC34-v35-mu-IgG2a), at one of three doses, administered intraperitoneally twice per week during weeks two and three; or (5-7) an HBV-specific siRNA (HBV02, having an antisense strand of SEQ ID NO:8; see description in Example 1) administered subcutaneously once at the beginning of the study, and the fully murinized HBC34v35, at one of three antibody doses, administered intraperitoneally twice per week during weeks two and three (see Table 7). Mice were sacrificed at week 6.
Serum samples were collected periodically throughout the study, and viral load, HBsAg, and free HBC34 antibody were measured.

[3] = target: HBsAg (Hepatitis B virus genotype D subtype ayw, UniProt P03138); assay: Activity measured diagnostically with an immunoassay; type: binding, HBV
[4] = target: antigenic loop of HBsAg; assay: Binding to HBsAg; set-up: species or system HBV
[5] = system: HBV; assay: HBV neutralization; type: cell-based; details: human antibodies against HBsAg
Protocol: To study and quantitate virus infectivity (or “neutralization”) in the laboratory the person skilled in the art knows various standard “neutralization assays.” For a neutralization assay, animal viruses are typically propagated in cells and/or cell lines. In the context of the present disclosure, for a neutralization assay, cultured cells may be incubated with a fixed amount of HBV in the presence (or absence) of the antibody to be tested. As a readout, the levels of hepatitis B surface antigen (HBsAg) or hepatitis B e antigen (HBeAg) secreted into the cell culture supernatant may be used and/or HBcAg staining may be assessed. In one embodiment of a HBV neutralization assay, cultured cells, for example HepaRG cells, in particular differentiated HepaRG cells, are incubated with a fixed amount of HBV in the presence or absence of the antibody to be tested, for example for 16 hours at 37° C. The incubation may be performed in a medium (e.g., supplemented with 4% PEG 8000). After incubation, cells may be washed and further cultivated. To measure virus infectivity, the levels of hepatitis B surface antigen (HBsAg) and hepatitis B e antigen (HBeAg) secreted into the culture supernatant, e.g., from day 7 to day 11 post-infection, may be determined by enzyme-linked immunosorbent assay (ELISA). Additionally, HBcAg staining may be assessed in an immunofluorescence assay.

## HBC34: human monoclonal antibody against HBsAg antigenic loop; VH SEQ ID NO:53, VL SEQ ID NO:55
[1]; AAV/HBV-infected C57BL/6 mice, HBV02 3 mg/kg, HBC34 antibody (HBC34-v7-mu-IgG2a) 15 mg/kg, alone or combined, FIGS. 2A, 2B
  Reduction of serum HBV DNA (viral load) relative to the saline control: no effect
[1]; AAV/HBV-infected C57BL/6 mice, HBV02 3 mg/kg, HBC34 antibody (HBC34-v7-mu-IgG2a) 15 mg/kg, alone or combined, FIGS. 3A, 3B
  Reduction of serum HBsAg relative to the saline control: < 1 log10
[2]; FIG. 9
  Serum HBV DNA concentration, antibody monotherapy: lower
[2]; FIG. 10
  Serum HBsAg concentration, antibody monotherapy: lower
[3]
  Activity as measured diagnostically with an immunoassay: 5000 IU/mg
[4]
  Affinity of binding to the antigenic loop of HBsAg: high affinity (in the pM range)
  HBV genotypes and mutants recognized: all 10 HBV genotypes and 18 mutants
[4]; spherical subviral particles
  Stoichiometry of binding to spherical SVPs: low stoichiometry
[5]
  Neutralizing activity: high neutralizing activity

B1: HBC34v7 (antibody, V domains shown)
VH: ELQLVESGGGWVQPGGSQRLSCAASGRIFRSFYMSWVRQAPGKGLEWVATINQDGSEKLYVDSVKGRFTISRDNAKNSLFLQMNNLRVEDTAVYYCAAWSGNSGGMDVWGQGTTVSVSS
VL: SYELTQPPSVSVSPGQTVSIPCSGDKLGNKNVCWFQHKPGQSPVLVIYEVKYRPSGIPERFSGSNSGNTATLTISGTQAMDEAAYFCQTFDSTTVVFGGGTRLTVL
modifications: Synthetic sequence HBC34 VH; Synthetic sequence HBC34v7 VL
[1]; Treatment 2: HBC34v7 15 mg/kg, day 0 post-dose
  HBsAg levels from mouse serum (average log HBsAg content): 4.64 log IU/ml
[1]; Treatment 2: HBC34v7 15 mg/kg, day 3 post-dose
  HBsAg levels from mouse serum (average log HBsAg content): 4.58 log IU/ml
[1]; Treatment 2: HBC34v7 15 mg/kg, day 7 post-dose
  HBsAg levels from mouse serum (average log HBsAg content): 4.46 log IU/ml
[1]; Treatment 2: HBC34v7 15 mg/kg, day 10 post-dose
  HBsAg levels from mouse serum (average log HBsAg content): 4.42 log IU/ml
[1]; Treatment 2: HBC34v7 15 mg/kg, day 14 post-dose
  HBsAg levels from mouse serum (average log HBsAg content): 4.34 log IU/ml
[1]; Treatment 2: HBC34v7 15 mg/kg, day 17 post-dose
  HBsAg levels from mouse serum (average log HBsAg content): 3.87 log IU/ml
[1]; Treatment 2: HBC34v7 15 mg/kg, day 21 post-dose
  HBsAg levels from mouse serum (average log HBsAg content): 4.09 log IU/ml
[1]; Treatment 2: HBC34v7 15 mg/kg, day 24 post-dose
  HBsAg levels from mouse serum (average log HBsAg content): 3.65 log IU/ml
[1]; Treatment 2: HBC34v7 15 mg/kg, day 28 post-dose
  HBsAg levels from mouse serum (average log HBsAg content): 4.15 log IU/ml
[1]; Treatment 2: HBC34v7 15 mg/kg, day 31 post-dose
  HBsAg levels from mouse serum (average log HBsAg content): 4.29 log IU/ml
[1]; Treatment 2: HBC34v7 15 mg/kg, day 35 post-dose
  HBsAg levels from mouse serum (average log HBsAg content): 4.25 log IU/ml
[1]; Treatment 2: HBC34v7 15 mg/kg, day 38 post-dose
  HBsAg levels from mouse serum (average log HBsAg content): 4.26 log IU/ml
[1]; Treatment 2: HBC34v7 15 mg/kg, day 42 post-dose
  HBsAg levels from mouse serum (average log HBsAg content): 4.28 log IU/ml
[1]; Treatment 3: HBC34v7 5 mg/kg, day 0 post-dose
  HBsAg levels from mouse serum (average log HBsAg content): 4.49 log IU/ml
[1]; Treatment 3: HBC34v7 5 mg/kg, day 3 post-dose
  HBsAg levels from mouse serum (average log HBsAg content): 4.37 log IU/ml
[1]; Treatment 3: HBC34v7 5 mg/kg, day 7 post-dose
  HBsAg levels from mouse serum (average log HBsAg content): 4.44 log IU/ml
[1]; Treatment 3: HBC34v7 5 mg/kg, day 10 post-dose
  HBsAg levels from mouse serum (average log HBsAg content): 4.35 log IU/ml
[1]; Treatment 3: HBC34v7 5 mg/kg, day 14 post-dose
  HBsAg levels from mouse serum (average log HBsAg content): 4.30 log IU/ml
[1]; Treatment 3: HBC34v7 5 mg/kg, day 17 post-dose
  HBsAg levels from mouse serum (average log HBsAg content): 4.28 log IU/ml
[1]; Treatment 3: HBC34v7 5 mg/kg, day 21 post-dose
  HBsAg levels from mouse serum (average log HBsAg content): 4.32 log IU/ml
[1]; Treatment 3: HBC34v7 5 mg/kg, day 24 post-dose
  HBsAg levels from mouse serum (average log HBsAg content): 4.26 log IU/ml
[1]; Treatment 3: HBC34v7 5 mg/kg, day 28 post-dose
  HBsAg levels from mouse serum (average log HBsAg content): 4.23 log IU/ml
[1]; Treatment 3: HBC34v7 5 mg/kg, day 31 post-dose
  HBsAg levels from mouse serum (average log HBsAg content): 3.99 log IU/ml
[1]; Treatment 3: HBC34v7 5 mg/kg, day 35 post-dose
  HBsAg levels from mouse serum (average log HBsAg content): 3.99 log IU/ml
[1]; Treatment 3: HBC34v7 5 mg/kg, day 38 post-dose
  HBsAg levels from mouse serum (average log HBsAg content): 4.08 log IU/ml
[1]; Treatment 3: HBC34v7 5 mg/kg, day 42 post-dose
  HBsAg levels from mouse serum (average log HBsAg content): 4.05 log IU/ml
[1]; Treatment 4: HBC34v7 1 mg/kg, day 0 post-dose
  HBsAg levels from mouse serum (average log HBsAg content): 4.50 log IU/ml
[1]; Treatment 4: HBC34v7 1 mg/kg, day 3 post-dose
  HBsAg levels from mouse serum (average log HBsAg content): 4.46 log IU/ml
[1]; Treatment 4: HBC34v7 1 mg/kg, day 7 post-dose
  HBsAg levels from mouse serum (average log HBsAg content): 4.42 log IU/ml
[1]; Treatment 4: HBC34v7 1 mg/kg, day 10 post-dose
  HBsAg levels from mouse serum (average log HBsAg content): 4.37 log IU/ml
[1]; Treatment 4: HBC34v7 1 mg/kg, day 14 post-dose
  HBsAg levels from mouse serum (average log HBsAg content): 4.40 log IU/ml
[1]; Treatment 4: HBC34v7 1 mg/kg, day 17 post-dose
  HBsAg levels from mouse serum (average log HBsAg content): 4.31 log IU/ml
[1]; Treatment 4: HBC34v7 1 mg/kg, day 21 post-dose
  HBsAg levels from mouse serum (average log HBsAg content): 4.31 log IU/ml
[1]; Treatment 4: HBC34v7 1 mg/kg, day 24 post-dose
  HBsAg levels from mouse serum (average log HBsAg content): 4.38 log IU/ml
[1]; Treatment 4: HBC34v7 1 mg/kg, day 28 post-dose
  HBsAg levels from mouse serum (average log HBsAg content): 4.29 log IU/ml
[1]; Treatment 4: HBC34v7 1 mg/kg, day 31 post-dose
  HBsAg levels from mouse serum (average log HBsAg content): 4.15 log IU/ml
[1]; Treatment 4: HBC34v7 1 mg/kg, day 35 post-dose
  HBsAg levels from mouse serum (average log HBsAg content): 4.16 log IU/ml
[1]; Treatment 4: HBC34v7 1 mg/kg, day 38 post-dose
  HBsAg levels from mouse serum (average log HBsAg content): 4.09 log IU/ml
[1]; Treatment 4: HBC34v7 1 mg/kg, day 42 post-dose
  HBsAg levels from mouse serum (average log HBsAg content): 4.08 log IU/ml
[1]; Treatment 5: HBC34v7 0.1 mg/kg, day 0 post-dose
  HBsAg levels from mouse serum (average log HBsAg content): 4.51 log IU/ml
[1]; Treatment 5: HBC34v7 0.1 mg/kg, day 3 post-dose
  HBsAg levels from mouse serum (average log HBsAg content): 4.36 log IU/ml
[1]; Treatment 5: HBC34v7 0.1 mg/kg, day 7 post-dose
  HBsAg levels from mouse serum (average log HBsAg content): 4.31 log IU/ml
[1]; Treatment 5: HBC34v7 0.1 mg/kg, day 10 post-dose
  HBsAg levels from mouse serum (average log HBsAg content): 4.17 log IU/ml
[1]; Treatment 5: HBC34v7 0.1 mg/kg, day 14 post-dose
  HBsAg levels from mouse serum (average log HBsAg content): 4.26 log IU/ml
[1]; Treatment 5: HBC34v7 0.1 mg/kg, day 17 post-dose
  HBsAg levels from mouse serum (average log HBsAg content): 4.17 log IU/ml
[1]; Treatment 5: HBC34v7 0.1 mg/kg, day 21 post-dose
  HBsAg levels from mouse serum (average log HBsAg content): 4.23 log IU/ml
[1]; Treatment 5: HBC34v7 0.1 mg/kg, day 24 post-dose
  HBsAg levels from mouse serum (average log HBsAg content): 4.25 log IU/ml
[1]; Treatment 5: HBC34v7 0.1 mg/kg, day 28 post-dose
  HBsAg levels from mouse serum (average log HBsAg content): 4.20 log IU/ml
[1]; Treatment 5: HBC34v7 0.1 mg/kg, day 31 post-dose
  HBsAg levels from mouse serum (average log HBsAg content): 4.26 log IU/ml
[1]; Treatment 5: HBC34v7 0.1 mg/kg, day 35 post-dose
  HBsAg levels from mouse serum (average log HBsAg content): 4.38 log IU/ml
[1]; Treatment 5: HBC34v7 0.1 mg/kg, day 38 post-dose
  HBsAg levels from mouse serum (average log HBsAg content): 4.38 log IU/ml
[1]; Treatment 5: HBC34v7 0.1 mg/kg, day 42 post-dose
  HBsAg levels from mouse serum (average log HBsAg content): 4.30 log IU/ml

B2: HBC24: human antibody against HBsAg, VH SEQ ID NO:75, VL SEQ ID NO:76; murinized heavy and light chains SEQ ID NOs:103 and 104 (antibody, V domains shown)
VH: EVQLLESGGGLVQPGGSLRLSCAASGSTFTKYAMSWVRQAPGKGLEWVASISGSVPGFGIDTYYADSVKGRFTISRDTSKNTLYLQMNSLRAEDTALYYCAKDVGVIGSYYYYAMDVWGQGTAVTVSS
VL: EIVLTQSPGTLSLSPGERATLSCRASQGLSSSYLAWYQQKPGQAPRLLIYSASTRATGIPDRFSGSGSGTDFTLTISRLEPEDFAVYYCQQYAYSPRWTFGQGTKVEIK
modifications: Synthetic sequence HBC24 VH; Synthetic sequence HBC24 VL
[5]
  Neutralizing activity: high neutralizing activity

Reference: patent publication US12404318B2, “Combination HBV therapy” (priority 2018, dated 2025)
